Source: the supplement of paper PMC9170038

Test system: K4 kissing-loop RNA reporter
Test: apparent KD of K4 kissing-loop reporter; higher = weaker reporter binding
Conditions: Eterna round: R107
Protocol: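 RNA-MaP round R107: designed RNA switches with theophylline, tryptophan, arginine or FMN aptamers are transcribed on-chip within common flanks. They are titrated with a labelled K4 kissing-loop RNA reporter in RNA-MaP buffer (100 mM Tris pH 7.5, 80 mM KCl, 4 mM MgCl2), without ligand or with the indicated ligand. Median apparent KD per design.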

[1] = input ligand: theophylline 20 uM
[2] = input ligand: tryptophan 2.4 mM
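Also: bound reporter read as fluorescence of individual clusters on recovered sequencing chips by microscopy, with normalized cluster intensities fitted with a binding model.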

| Sequence | apparent KD of K4 kissing-loop reporter (input ligand: FMN 200 uM) [nM] | apparent KD of K4 kissing-loop reporter (input ligand: arginine 13.2 mM) [nM] | apparent KD of K4 kissing-loop reporter (input ligand: none) [nM] | apparent KD of K4 kissing-loop reporter [1] [nM] | apparent KD of K4 kissing-loop reporter [2] [nM] |
| --- | --- | --- | --- | --- | --- |
| UGACUGGACUGAAGGAGCGCGAACUCCUAGUGAUGUUAGGAAAUACGAGACAAAGUCUCGACGCAGGUAGGUCGCAGUCUAGUCU [ArgBS 15 #SwitchBubble #StaticStem] | 110 | 86.6 | 107 | 104 | 98 |
| CUAUGGAAACAUAGUAGUCGGGAAACCGAUACCAGUAUGGAAACAUACCCUUGGCAGCGGAAUGAUUAAACGGAGUGAUGUUCCG [Theophylline A K4 18] | 279 | 276 | 292 | 223 | 250 |
| GAACGGCGGGCGGCCGCCACUGGUAUACGAGUGAUGUUCGGAUAUACAUAAAAUAAGGUAAUUAACAGGACCGGGUCAGAGCCGG [Tryptophan B Same State; Euphoria Solution] | 138 | 130 | 165 | 142 | 118 |
| GGAUAGGAUAGAGGAUAUGGUAGUGAUGUUACCAAACUGGUUAAACAUGUCAGAAAACUGGCAUGACCAGAAGGCUGUCCUAUCG [FmnBX 27 U9] | 102 | 63.4 | 71 | 70.5 | 69.8 |
| AAACAACUUGACGAUACCAGCUUACUCGGCAAGCCAGUGAUGUUGGUGAAAAGGAGUCAAAGCCCUUGGCAGCGUCGAAGGUCUG [Raatarerin] | 271 | 240 | 304 | 119 | 258 |
| GUGCAGUGAUGUUGCACGAGGAAAGACGAUACCAGCCGUAAAUAAGGCCCUUGGCAGCGUAAGCUAGCAUAAAGUAUGCUAGUCC [Onarve] | 108 | 102 | 103 | 77.1 | 85.2 |
| AAUGCAUUGUGAAGGAGCGCGUUAAGCAGUGAUGUUGCUUUUAUAUUUUUCAGUUUUAUAUCGCAGGUAGGUCGCACUUUGCAUA [JR_Nu_SSArginiB_Sub029] | 172 | 158 | 173 | 192 | 148 |
| GCGCGUCAUGUCAGCGGUGACACUGUCGAUACCAGUGCCGUAAGGCGCCCUUGGCAGCGACGUGCUGGAGUGAUGUUCCAGCGUU [#2 Exclusion - Theophylline A Attempt #31 (HarryS)] | 143 | 132 | 153 | 154 | 146 |
| AUUAAUAUCACGGCCGCCACUGAAUAUUGUUUUUAUAUUUAGAAAUCUUGCCAGUGAUGUUGGAUCAGGACCGGGUGAGUUUAUA [JR_SSTryptoB_Sub006] | 613 | 439 | 463 | 424 | 444 |
| UAACGGCAACAAGGAUAUCCCAGUGAUGUUGGGAGAUAUUGACUAAGGAGACAUGAUAGGCAUAAUGGAGAAGGUGUGUUGGGAG [theeternabot_exclusion_KL_FMN_B_19] | 159 | 116 | 142 | 131 | 138 |
| AACUGUCAAGGCCAACAUUACUGAGGUGAUACCAGCAUCGAAAGAUGCCCUUGGCAGCACCGACUUGCAGUGAUGUUGCAAGUAA [BrourdMod 12 - Jieux - Exclusion - Theophylline A] | 329 | 266 | 333 | 370 | 287 |
